Consider 25 molecules from patent US20210275653A1.

In this test the target is HLA-A*24 MHC class I molecule (peptide-receptive after UV-ligand exchange) (human). As to the kind of experiment: UV-ligand exchange, anti-b2m ELISA; grade of peptide exchange yield (>=10% = +; >=20% = ++; >=50 = +++; >=75% = ++++). (In general: An ELISA detects its analyte on a solid surface through an enzyme-linked reagent.)

B1: peptide … (SEQ ID No. 26) (peptide)
peptide: RYADDTFTPAF
For the molecule B1, the peptide exchange yield was in the range of 50 to 75%.

B2: peptide … (SEQ ID No. 33) (peptide)
peptide: QYGKDFLTL
For B2, the peptide exchange yield lay within 50 to 75%.

B3: peptide … (SEQ ID No. 30) (peptide)
peptide: SYSPAHARL
B3 displayed a peptide exchange yield of 50 to 75%.

B4: peptide … (SEQ ID No. 27) (peptide)
peptide: GYLQGLVSF
B4: the peptide exchange yield is greater than 75%.

B5: peptide … (SEQ ID No. 55) (peptide)
peptide: LYFEKGEYF
For the molecule B5, the peptide exchange yield was greater than 75%.

B6: peptide … (SEQ ID No. 41) (peptide)
peptide: RYLQKIEEF
Turning to B6, the peptide exchange yield was 50 to 75%.

B7: peptide … (SEQ ID No. 42) (peptide)
peptide: TYIGQGYII
B7 displayed a peptide exchange yield of 50 to 75%.

B8: peptide … (SEQ ID No. 31) (peptide)
peptide: AYTSPPSFF
In turn, B8 displayed a peptide exchange yield of 50 to 75%.

B9: peptide … (SEQ ID No. 45) (peptide)
peptide: RYFKTPRKF
Molecule B9 returned a peptide exchange yield of 20 to 50%.

B10: peptide … (SEQ ID No. 32) (peptide)
peptide: PYQLNASLFTF
Take B10: the peptide exchange yield was greater than 75%.

B11: peptide … (SEQ ID No. 35) (peptide)
peptide: IYTRVTYYL
As to B11, the peptide exchange yield lay within 20 to 50%.

B12: peptide … (SEQ ID No. 36) (peptide)
peptide: RYMWINQEL
Take B12: the peptide exchange yield was in the range of 50 to 75%.

B13: peptide … (SEQ ID No. 44) (peptide)
peptide: VYNTVSEGTHF
Regarding B13, the peptide exchange yield was in the range of 50 to 75%.

B14: peptide … (SEQ ID No. 47) (peptide)
peptide: SYTPVLNQF
B14 returned a peptide exchange yield greater than 75%.

B15: peptide … (SEQ ID No. 29) (peptide)
peptide: RYGSPINTF
In the case of B15, the peptide exchange yield lay within 50 to 75%.

B16: peptide … (SEQ ID No. 25) (peptide)
peptide: IYEPYLAMF
B16 gave a peptide exchange yield of 50 to 75%.

B17: peptide … (SEQ ID No. 54) (peptide)
peptide: AYSEKVTEF
For B17, the peptide exchange yield fell in the range of 50 to 75%.

B18: peptide … (SEQ ID No. 43) (peptide)
peptide: AYIKNGQLF
With B18, the peptide exchange yield fell in the range of 50 to 75%.

B19: peptide … (SEQ ID No. 58) (peptide)
peptide: GYIDKVRQL
As to B19, the peptide exchange yield fell in the range of 20 to 50%.

B20: peptide … (SEQ ID No. 56) (peptide)
peptide: LFHPEDTGQVF
B20 gave a peptide exchange yield of 20 to 50%.

B21: peptide … (SEQ ID No. 28) (peptide)
peptide: YYAKEIHKF
As for B21, the peptide exchange yield is greater than 75%.

B22: peptide … (SEQ ID No. 59) (peptide)
peptide: IYPDVTYAF
B22: the peptide exchange yield lay within 50 to 75%.

B23: peptide … (SEQ ID No. 48) (peptide)
peptide: AWAPKPYHKF
Take B23: the peptide exchange yield lay in the range of 50 to 75%.

B24: peptide … (SEQ ID No. 34) (peptide)
peptide: AFSPDSHYLLF
Molecule B24 returned a peptide exchange yield of 50 to 75%.

B25: peptide … (SEQ ID No. 24) (peptide)
peptide: SYNDALLTF
Regarding B25, the peptide exchange yield lay within 50 to 75%.
